From publication PMC7264293, “Multi-site-mediated entwining of the linear WIR-motif around WIPI β-propellers for autophagy” (Nature Communications, 2020) come the findings set out here.

WIPI3-Δloop, Q5MNZ6 R62A, sequence (Q5MNZ6 other isoform, or with tags, fused parts or gaps R62A | mutant): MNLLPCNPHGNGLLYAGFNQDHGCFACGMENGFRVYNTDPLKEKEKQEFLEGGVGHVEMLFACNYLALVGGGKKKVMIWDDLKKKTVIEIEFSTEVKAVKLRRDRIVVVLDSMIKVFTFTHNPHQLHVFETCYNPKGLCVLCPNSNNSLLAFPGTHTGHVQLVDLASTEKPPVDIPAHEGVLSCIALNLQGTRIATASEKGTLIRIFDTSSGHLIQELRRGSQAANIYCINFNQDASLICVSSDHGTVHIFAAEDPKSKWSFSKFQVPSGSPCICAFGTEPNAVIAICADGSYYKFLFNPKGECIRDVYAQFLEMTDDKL
WIPI3-Δloop, Q5MNZ6 R109Q, sequence (Q5MNZ6 other isoform, or with tags, fused parts or gaps R109Q | mutant): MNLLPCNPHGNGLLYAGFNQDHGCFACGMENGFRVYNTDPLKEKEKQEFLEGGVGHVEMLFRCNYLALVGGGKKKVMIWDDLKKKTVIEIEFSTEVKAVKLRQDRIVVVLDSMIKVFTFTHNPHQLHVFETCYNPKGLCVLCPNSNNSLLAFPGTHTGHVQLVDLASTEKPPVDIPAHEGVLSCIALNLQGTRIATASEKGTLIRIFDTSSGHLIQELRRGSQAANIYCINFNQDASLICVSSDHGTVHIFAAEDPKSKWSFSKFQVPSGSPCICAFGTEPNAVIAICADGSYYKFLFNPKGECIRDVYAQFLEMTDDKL
WIPI3-Δloop, Q5MNZ6 F125A, sequence (Q5MNZ6 other isoform, or with tags, fused parts or gaps F125A | mutant): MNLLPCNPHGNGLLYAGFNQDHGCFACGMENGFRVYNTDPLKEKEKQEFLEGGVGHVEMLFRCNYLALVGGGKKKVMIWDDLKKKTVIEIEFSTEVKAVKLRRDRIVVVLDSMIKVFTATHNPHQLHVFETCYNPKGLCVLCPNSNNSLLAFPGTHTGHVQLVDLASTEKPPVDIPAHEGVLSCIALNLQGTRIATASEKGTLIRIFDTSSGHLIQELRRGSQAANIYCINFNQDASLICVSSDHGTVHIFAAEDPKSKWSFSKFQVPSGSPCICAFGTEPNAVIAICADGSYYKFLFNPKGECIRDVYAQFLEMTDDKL
WIPI3-Δloop, Q5MNZ6 Y65A, sequence (Q5MNZ6 other isoform, or with tags, fused parts or gaps Y65A | mutant): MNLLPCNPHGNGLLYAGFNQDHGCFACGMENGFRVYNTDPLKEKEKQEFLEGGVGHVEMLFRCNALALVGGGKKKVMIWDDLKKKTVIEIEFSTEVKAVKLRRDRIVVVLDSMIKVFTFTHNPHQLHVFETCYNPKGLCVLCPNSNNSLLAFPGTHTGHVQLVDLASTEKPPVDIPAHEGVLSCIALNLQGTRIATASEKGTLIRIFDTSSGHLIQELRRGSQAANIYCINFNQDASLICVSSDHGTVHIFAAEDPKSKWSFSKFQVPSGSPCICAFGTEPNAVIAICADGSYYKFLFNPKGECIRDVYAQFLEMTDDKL
WIPI3-Δloop, Q5MNZ6 F98A, sequence (Q5MNZ6 other isoform, or with tags, fused parts or gaps F98A | mutant): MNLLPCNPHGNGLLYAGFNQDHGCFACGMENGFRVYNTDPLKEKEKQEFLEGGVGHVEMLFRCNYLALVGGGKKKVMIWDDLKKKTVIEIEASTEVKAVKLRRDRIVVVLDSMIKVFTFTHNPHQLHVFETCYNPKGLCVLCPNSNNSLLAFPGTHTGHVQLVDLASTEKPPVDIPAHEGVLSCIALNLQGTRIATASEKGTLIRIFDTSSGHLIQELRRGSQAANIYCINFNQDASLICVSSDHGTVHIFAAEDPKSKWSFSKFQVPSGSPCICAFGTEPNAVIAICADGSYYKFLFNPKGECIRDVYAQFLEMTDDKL
WIPI3-Δloop, Q5MNZ6 I96A, sequence (Q5MNZ6 other isoform, or with tags, fused parts or gaps I96A | mutant): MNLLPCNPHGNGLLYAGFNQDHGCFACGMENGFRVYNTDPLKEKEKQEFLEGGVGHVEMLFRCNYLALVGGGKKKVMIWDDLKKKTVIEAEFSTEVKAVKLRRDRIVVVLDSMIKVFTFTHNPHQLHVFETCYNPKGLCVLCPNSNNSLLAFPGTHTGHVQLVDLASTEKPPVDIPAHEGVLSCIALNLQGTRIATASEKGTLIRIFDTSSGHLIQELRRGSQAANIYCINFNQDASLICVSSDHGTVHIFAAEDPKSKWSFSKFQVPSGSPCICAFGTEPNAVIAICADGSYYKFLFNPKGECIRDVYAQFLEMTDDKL

The target in the experiment is GB1-tagged ATG2A short fragment (1374-1404), the WIR-peptide (UniProt Q2TAZ0). The experiment can be described thus: ITC.
GB1-tagged ATG2A short fragment (1374-1404), the WIR-peptide, sequence (Q2TAZ0 1374-1404): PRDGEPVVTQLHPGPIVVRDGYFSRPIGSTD
On to WIPI3-Δloop, Q5MNZ6 F98A, for which the equilibrium dissociation constant (Kd) was determined as 31.6 µM.

With WIPI3-Δloop, Q5MNZ6 F125A, the Kd was determined as 244 µM.

With WIPI3-Δloop, Q5MNZ6 Y65A, the Kd turned out to be 76.1 µM.

WIPI3-Δloop, Q5MNZ6 R109Q came in with a Kd of 52.6 µM.

Substance WIPI3-Δloop, Q5MNZ6 R62A yielded a Kd of 72.5 µM.

For WIPI3-Δloop, Q5MNZ6 I96A, the Kd is 40 µM.
